# Laboratory results: doi:10.1101/2020.10.25.354415 (bioRxiv, 2020)
# T1: β-catenin•N-cadherin cytoplasmic tail complex (M. musculus | , UniProt Q02248 1-781; P15116 746-906)
# T1 sequence (looked up) 1: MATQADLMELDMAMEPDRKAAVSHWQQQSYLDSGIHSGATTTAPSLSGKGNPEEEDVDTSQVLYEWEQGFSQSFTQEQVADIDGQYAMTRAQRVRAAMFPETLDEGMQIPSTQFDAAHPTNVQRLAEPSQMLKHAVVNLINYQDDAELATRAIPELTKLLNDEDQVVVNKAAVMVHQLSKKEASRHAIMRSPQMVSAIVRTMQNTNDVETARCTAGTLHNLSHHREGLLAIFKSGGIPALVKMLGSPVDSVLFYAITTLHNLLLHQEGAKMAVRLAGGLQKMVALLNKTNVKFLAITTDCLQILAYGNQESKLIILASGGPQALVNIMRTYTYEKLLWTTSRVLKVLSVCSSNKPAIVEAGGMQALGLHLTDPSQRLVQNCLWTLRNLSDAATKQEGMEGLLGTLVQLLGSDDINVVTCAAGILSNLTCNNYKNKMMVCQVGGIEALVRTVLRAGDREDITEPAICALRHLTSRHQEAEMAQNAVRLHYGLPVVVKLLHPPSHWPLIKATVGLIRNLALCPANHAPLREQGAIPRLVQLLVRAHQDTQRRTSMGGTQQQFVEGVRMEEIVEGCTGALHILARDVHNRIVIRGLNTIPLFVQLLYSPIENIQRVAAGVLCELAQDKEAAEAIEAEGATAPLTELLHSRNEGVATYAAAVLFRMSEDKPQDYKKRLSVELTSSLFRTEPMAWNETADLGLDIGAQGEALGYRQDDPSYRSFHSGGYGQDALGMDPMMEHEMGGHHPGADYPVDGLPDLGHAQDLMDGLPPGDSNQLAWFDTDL
# T1 sequence (looked up) 2: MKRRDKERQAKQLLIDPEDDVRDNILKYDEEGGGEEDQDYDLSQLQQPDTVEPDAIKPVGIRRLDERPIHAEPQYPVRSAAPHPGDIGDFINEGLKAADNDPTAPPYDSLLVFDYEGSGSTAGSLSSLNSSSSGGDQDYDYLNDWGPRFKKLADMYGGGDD
# T2: β-catenin (M. musculus, UniProt Q02248 1-781)
# T2 sequence (looked up): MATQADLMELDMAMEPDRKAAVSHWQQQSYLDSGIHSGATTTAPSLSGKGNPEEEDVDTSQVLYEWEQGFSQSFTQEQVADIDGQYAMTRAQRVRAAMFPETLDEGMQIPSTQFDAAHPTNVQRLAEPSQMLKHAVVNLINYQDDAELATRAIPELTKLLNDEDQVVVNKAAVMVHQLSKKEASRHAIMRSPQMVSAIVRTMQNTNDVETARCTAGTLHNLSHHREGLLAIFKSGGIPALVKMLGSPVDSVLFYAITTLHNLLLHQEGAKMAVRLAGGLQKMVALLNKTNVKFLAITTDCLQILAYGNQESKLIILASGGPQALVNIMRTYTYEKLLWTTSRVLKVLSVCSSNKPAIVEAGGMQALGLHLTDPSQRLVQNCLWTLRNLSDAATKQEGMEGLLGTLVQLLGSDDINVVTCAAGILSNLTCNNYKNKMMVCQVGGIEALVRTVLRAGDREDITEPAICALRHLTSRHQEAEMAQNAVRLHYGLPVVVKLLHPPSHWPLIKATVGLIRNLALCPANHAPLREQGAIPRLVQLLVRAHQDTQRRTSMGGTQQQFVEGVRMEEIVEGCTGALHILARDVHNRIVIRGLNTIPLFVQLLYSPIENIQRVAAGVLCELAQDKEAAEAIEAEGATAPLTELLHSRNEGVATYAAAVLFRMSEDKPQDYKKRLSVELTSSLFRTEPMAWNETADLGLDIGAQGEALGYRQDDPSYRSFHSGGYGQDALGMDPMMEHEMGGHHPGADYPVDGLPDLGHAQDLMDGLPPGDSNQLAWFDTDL
# T3: αT-catenin N2-M3 (aa147-626) (M. musculus, UniProt Q65CL1 147-626)
# T3 sequence (looked up): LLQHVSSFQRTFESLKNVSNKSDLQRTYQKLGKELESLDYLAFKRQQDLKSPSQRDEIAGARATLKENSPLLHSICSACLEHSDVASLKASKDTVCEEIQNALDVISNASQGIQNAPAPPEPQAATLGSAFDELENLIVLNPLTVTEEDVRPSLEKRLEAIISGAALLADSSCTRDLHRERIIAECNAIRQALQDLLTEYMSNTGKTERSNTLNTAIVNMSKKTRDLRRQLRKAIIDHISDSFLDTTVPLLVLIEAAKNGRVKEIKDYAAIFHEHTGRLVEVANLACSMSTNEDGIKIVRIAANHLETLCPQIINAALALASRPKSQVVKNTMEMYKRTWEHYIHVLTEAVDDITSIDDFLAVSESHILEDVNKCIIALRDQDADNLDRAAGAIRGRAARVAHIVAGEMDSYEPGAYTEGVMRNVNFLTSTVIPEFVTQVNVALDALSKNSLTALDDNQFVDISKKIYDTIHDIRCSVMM
# T4: αT-catenin head•β-catenin complex (M. musculus, UniProt Q65CL1 1-659; Q02248 1-781)
# T4 sequence (looked up) 1: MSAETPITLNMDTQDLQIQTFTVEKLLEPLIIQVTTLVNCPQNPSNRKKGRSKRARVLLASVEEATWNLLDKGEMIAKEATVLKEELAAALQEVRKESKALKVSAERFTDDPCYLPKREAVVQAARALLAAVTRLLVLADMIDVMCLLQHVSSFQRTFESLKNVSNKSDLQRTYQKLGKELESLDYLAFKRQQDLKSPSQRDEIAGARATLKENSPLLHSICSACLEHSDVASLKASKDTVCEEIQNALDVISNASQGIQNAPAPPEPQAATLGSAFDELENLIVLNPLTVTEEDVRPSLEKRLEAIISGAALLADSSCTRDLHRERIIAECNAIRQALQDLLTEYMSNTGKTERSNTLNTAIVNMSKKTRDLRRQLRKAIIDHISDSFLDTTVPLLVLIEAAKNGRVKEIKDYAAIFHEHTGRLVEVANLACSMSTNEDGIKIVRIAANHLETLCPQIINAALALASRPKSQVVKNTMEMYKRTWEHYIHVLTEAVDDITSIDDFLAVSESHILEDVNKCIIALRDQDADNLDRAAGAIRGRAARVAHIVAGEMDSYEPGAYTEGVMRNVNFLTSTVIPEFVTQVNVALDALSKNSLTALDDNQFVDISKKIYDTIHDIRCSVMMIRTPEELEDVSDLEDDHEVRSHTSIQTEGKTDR
# T4 sequence (looked up) 2: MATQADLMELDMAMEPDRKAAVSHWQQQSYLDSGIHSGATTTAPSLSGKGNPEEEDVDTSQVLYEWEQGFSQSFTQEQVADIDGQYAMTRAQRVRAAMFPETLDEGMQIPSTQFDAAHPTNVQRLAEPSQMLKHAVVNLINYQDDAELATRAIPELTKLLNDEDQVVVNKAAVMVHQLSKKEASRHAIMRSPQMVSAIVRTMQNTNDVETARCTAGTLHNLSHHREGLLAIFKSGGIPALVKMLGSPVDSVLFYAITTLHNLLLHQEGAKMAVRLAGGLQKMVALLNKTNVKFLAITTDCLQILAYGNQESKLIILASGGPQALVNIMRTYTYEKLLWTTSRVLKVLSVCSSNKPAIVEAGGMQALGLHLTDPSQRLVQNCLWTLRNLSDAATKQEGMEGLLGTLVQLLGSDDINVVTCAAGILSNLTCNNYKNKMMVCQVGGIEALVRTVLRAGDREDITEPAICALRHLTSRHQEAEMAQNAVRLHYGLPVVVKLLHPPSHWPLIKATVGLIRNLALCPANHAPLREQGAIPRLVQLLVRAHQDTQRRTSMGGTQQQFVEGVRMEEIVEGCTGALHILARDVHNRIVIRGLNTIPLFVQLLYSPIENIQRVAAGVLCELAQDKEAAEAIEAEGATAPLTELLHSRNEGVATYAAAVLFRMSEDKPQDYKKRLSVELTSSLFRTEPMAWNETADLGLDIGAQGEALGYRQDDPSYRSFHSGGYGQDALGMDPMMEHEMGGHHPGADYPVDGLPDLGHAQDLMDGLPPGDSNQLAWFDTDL
# T5: αT-catenin M1-M3 (aa260-626) (M. musculus, UniProt Q65CL1 260-626)
# T5 sequence (looked up): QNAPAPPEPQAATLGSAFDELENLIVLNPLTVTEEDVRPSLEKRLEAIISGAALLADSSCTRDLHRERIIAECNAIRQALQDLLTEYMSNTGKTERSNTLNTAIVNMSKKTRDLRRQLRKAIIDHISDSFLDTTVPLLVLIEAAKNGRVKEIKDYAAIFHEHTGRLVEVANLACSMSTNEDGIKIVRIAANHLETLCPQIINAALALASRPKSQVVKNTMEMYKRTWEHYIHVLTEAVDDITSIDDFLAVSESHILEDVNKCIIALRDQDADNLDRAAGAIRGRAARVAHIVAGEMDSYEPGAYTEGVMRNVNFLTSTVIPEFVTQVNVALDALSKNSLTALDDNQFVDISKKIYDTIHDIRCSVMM
# T6: 2I27-αT-catenin M1-M3(aa259-667)-2I27 (UniProt Q65CL1)
# T6 sequence (Q9UI47 whole entry, species assumed, looked up): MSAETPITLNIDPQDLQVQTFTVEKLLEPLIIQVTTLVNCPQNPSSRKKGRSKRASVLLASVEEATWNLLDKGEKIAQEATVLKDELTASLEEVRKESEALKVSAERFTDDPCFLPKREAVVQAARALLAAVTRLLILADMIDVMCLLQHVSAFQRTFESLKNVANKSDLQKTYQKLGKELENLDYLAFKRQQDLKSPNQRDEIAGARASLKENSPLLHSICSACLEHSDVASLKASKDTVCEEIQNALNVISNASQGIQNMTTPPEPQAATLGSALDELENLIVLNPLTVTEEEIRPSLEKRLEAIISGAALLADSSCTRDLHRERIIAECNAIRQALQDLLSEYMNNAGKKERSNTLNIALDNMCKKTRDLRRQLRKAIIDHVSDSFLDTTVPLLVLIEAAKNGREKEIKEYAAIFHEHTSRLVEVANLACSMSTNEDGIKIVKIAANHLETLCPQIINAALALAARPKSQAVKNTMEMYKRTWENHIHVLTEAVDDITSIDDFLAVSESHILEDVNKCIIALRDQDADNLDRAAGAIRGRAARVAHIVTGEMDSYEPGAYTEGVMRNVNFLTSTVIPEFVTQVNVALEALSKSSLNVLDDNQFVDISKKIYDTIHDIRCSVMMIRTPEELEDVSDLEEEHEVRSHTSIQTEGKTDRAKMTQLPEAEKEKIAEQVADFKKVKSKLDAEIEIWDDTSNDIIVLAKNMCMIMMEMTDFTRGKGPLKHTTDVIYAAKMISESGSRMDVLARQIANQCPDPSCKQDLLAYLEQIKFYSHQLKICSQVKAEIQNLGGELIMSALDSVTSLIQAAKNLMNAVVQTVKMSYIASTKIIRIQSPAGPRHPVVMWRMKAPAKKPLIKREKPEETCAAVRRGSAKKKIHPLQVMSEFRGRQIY
# B1: αT-catenin head region (aa1-659) (domain or fragment, M. musculus, UniProt Q65CL1 1-659, looked up)
# chain: MSAETPITLNMDTQDLQIQTFTVEKLLEPLIIQVTTLVNCPQNPSNRKKGRSKRARVLLASVEEATWNLLDKGEMIAKEATVLKEELAAALQEVRKESKALKVSAERFTDDPCYLPKREAVVQAARALLAAVTRLLVLADMIDVMCLLQHVSSFQRTFESLKNVSNKSDLQRTYQKLGKELESLDYLAFKRQQDLKSPSQRDEIAGARATLKENSPLLHSICSACLEHSDVASLKASKDTVCEEIQNALDVISNASQGIQNAPAPPEPQAATLGSAFDELENLIVLNPLTVTEEDVRPSLEKRLEAIISGAALLADSSCTRDLHRERIIAECNAIRQALQDLLTEYMSNTGKTERSNTLNTAIVNMSKKTRDLRRQLRKAIIDHISDSFLDTTVPLLVLIEAAKNGRVKEIKDYAAIFHEHTGRLVEVANLACSMSTNEDGIKIVRIAANHLETLCPQIINAALALASRPKSQVVKNTMEMYKRTWEHYIHVLTEAVDDITSIDDFLAVSESHILEDVNKCIIALRDQDADNLDRAAGAIRGRAARVAHIVAGEMDSYEPGAYTEGVMRNVNFLTSTVIPEFVTQVNVALDALSKNSLTALDDNQFVDISKKIYDTIHDIRCSVMMIRTPEELEDVSDLEDDHEVRSHTSIQTEGKTDR
# Assays:
# SEC = target: the molecule itself; experiment: SEC
# [1] = target: T1, β-catenin•N-cadherin cytoplasmic tail …; experiment: ITC
# β-catenin = target: T2, β-catenin; experiment: ITC
# [2] = target: T3, αT-catenin N2-M3 (aa147-626); experiment: ITC
# [3] = target: T4, αT-catenin head•β-catenin complex; experiment: ITC
# [4] = target: B1; experiment: ITC
# [5] = target: T5, αT-catenin M1-M3 (aa260-626); experiment: ITC
# [6] = target: T6, 2I27-αT-catenin M1-M3(aa259-667)-2I27; experiment: ITC
binder,measurement,setting,value
"αT-catenin V94D N1-N2 (domain or fragment, M. musculus, UniProt Q65CL1 1-259, looked up) MSAETPITLNMDTQDLQIQTFTVEKLLEPLIIQVTTLVNCPQNPSNRKKGRSKRARVLLASVEEATWNLLDKGEMIAKEATVLKEELAAALQEDRKESKALKVSAERFTDDPCYLPKREAVVQAARALLAAVTRLLVLADMIDVMCLLQHVSSFQRTFESLKNVSNKSDLQRTYQKLGKELESLDYLAFKRQQDLKSPSQRDEIAGARATLKENSPLLHSICSACLEHSDVASLKASKDTVCEEIQNALDVISNASQGI",stoichiometry N,SEC,2
"αT-catenin N1-N2 (aa1-259) (domain or fragment, M. musculus, UniProt Q65CL1 1-259, looked up) MSAETPITLNMDTQDLQIQTFTVEKLLEPLIIQVTTLVNCPQNPSNRKKGRSKRARVLLASVEEATWNLLDKGEMIAKEATVLKEELAAALQEVRKESKALKVSAERFTDDPCYLPKREAVVQAARALLAAVTRLLVLADMIDVMCLLQHVSSFQRTFESLKNVSNKSDLQRTYQKLGKELESLDYLAFKRQQDLKSPSQRDEIAGARATLKENSPLLHSICSACLEHSDVASLKASKDTVCEEIQNALDVISNASQGI",Kd,[1],7 nM
B1,Kd,[1],5 to 6 nM
same,Kd,β-catenin,~250 nM
"vinculin D1 (aa1-259) (domain or fragment, UniProt P12003 1-259, looked up) MPVFHTRTIESILEPVAQQISHLVIMHEEGEVDGKAIPDLTAPVSAVQAAVSNLVRVGKETVQTTEDQILKRDMPPAFIKVENACTKLVRAAQMLQADPYSVPARDYLIDGSRGILSGTSDLLLTFDEAEVRKIIRVCKGILEYLTVAEVVETMEDLVTYTKNLGPGMTKMAKMIDERQQELTHQEHRVMLVNSMNTVKELLPVLISAMKIFVTTKNTKSQGIEEALKNRNFTVEKMSAEINEIIRVLQLTSWDEDAWA",Kd,[2],50 nM
same,Kd,[3],~3000 nM
same,Kd,[4],~5000 nM
same,Kd,[5],50 nM
same,Kd,[6],250 nM
